{"source": "the supplement of paper PMC10567573", "parents": {"B1": {"name": "ZNF511 (parent)", "chain": "AAPFRFVARPVRFPREHQFFEDGD"}}, "data": [{"variants_of": "B1", "assay": "protein stability index of a GFP-peptide fusion (GPS, HEK-293T) (PSI 1-6); higher = more stable", "conditions": "c terminus: a fixed tail appended", "values": [{"variant": "AAPFRHVARPVRFPREHQFFEDGD", "protein stability index": 4.18}, {"variant": "AAPFRSVARPVRFPREHQFFEDGD", "protein stability index": 4.26}, {"variant": "AAPFRKVARPVRFPREHQFFEDGD", "protein stability index": 4.36}, {"variant": "RAPFRFVARPVRFPREHQFFEDGD", "protein stability index": 1.93}, {"variant": "WAPFRFVARPVRFPREHQFFEDGD", "protein stability index": 2.31}, {"variant": "CAPFRFVARPVRFPREHQFFEDGD", "protein stability index": 2.39}, {"variant": "AAPFRFVARPVTFPREHQFFEDGD", "protein stability index": 2.62}, {"variant": "AAPFRFVARPVSFPREHQFFEDGD", "protein stability index": 3.73}, {"variant": "AAPFRFVARPVDFPREHQFFEDGD", "protein stability index": 1.85}, {"variant": "AAPFRFVARPVMFPREHQFFEDGD", "protein stability index": 2.03}, {"variant": "AAPFRFVARPVVFPREHQFFEDGD", "protein stability index": 2.23}, {"variant": "AAPFRFVARPVNFPREHQFFEDGD", "protein stability index": 2.37}, {"variant": "AAPFRFVARPVHFPREHQFFEDGD", "protein stability index": 2.18}, {"variant": "AAPFRFVARPVIFPREHQFFEDGD", "protein stability index": 2.97}, {"variant": "AAPFRFVARPVAFPREHQFFEDGD", "protein stability index": 1.48}, {"variant": "AAPFRFVARPVRFPREHQFIEDGD", "protein stability index": 2.27}, {"variant": "AAPFRFVARPVRFPREHQFMEDGD", "protein stability index": 2.49}, {"variant": "AAPFRFVARPVRFPREHQFQEDGD", "protein stability index": 2.42}, {"variant": "AAPFRFVARPVRFPREHQFPEDGD", "protein stability index": 2.75}, {"variant": "AAPFRFVARPVRFPREHQFEEDGD", "protein stability index": 2.52}, {"variant": "AAPFRFVARPVRFPREHQFCEDGD", "protein stability index": 2.95}, {"variant": "AAPFRFVARPVRFPREHQFHEDGD", "protein stability index": 1.91}, {"variant": "AAPFRFVARPVRFPREHQFAEDGD", "protein stability index": 2.2}, {"variant": "AAPFRFVARPVRFPREHQFDEDGD", "protein stability index": 2.54}, {"variant": "AAPFRFVARPVRFPREHQFYEDGD", "protein stability index": 2.6}, {"variant": "AAPFRFVARPVRFPREHQFFEYGD", "protein stability index": 2.16}, {"variant": "AAPFRFVARPVRFPREHQFFELGD", "protein stability index": 2.01}, {"variant": "AAPFRFVARPVRFPREHQFFESGD", "protein stability index": 2.29}, {"variant": "AAPFRFVARPVRFPREHQFFEEGD", "protein stability index": 1.98}, {"variant": "AAPFRFVARPVRFPREHQFFEHGD", "protein stability index": 2.54}, {"variant": "AAPFRFVAEPVRFPREHQFFEDGD", "protein stability index": 2.21}, {"variant": "AAPFRFVAYPVRFPREHQFFEDGD", "protein stability index": 1.84}, {"variant": "AAPFRFVAVPVRFPREHQFFEDGD", "protein stability index": 2.14}, {"variant": "AAPFRFVAKPVRFPREHQFFEDGD", "protein stability index": 1.95}, {"variant": "AAPFRFVACPVRFPREHQFFEDGD", "protein stability index": 1.32}, {"variant": "AAPFRFVAMPVRFPREHQFFEDGD", "protein stability index": 1.95}, {"variant": "AAPFRFVAIPVRFPREHQFFEDGD", "protein stability index": 1.84}, {"variant": "AAPFRFVAAPVRFPREHQFFEDGD", "protein stability index": 2.41}, {"variant": "AAPFRFVAHPVRFPREHQFFEDGD", "protein stability index": 1.89}, {"variant": "AAPFRFVAGPVRFPREHQFFEDGD", "protein stability index": 2.41}, {"variant": "AAPFRFVARPVRFDREHQFFEDGD", "protein stability index": 2.26}, {"variant": "AAPFRFVARPVRFIREHQFFEDGD", "protein stability index": 2.33}, {"variant": "AAPFRFVARPVRFHREHQFFEDGD", "protein stability index": 1.69}, {"variant": "AAPFRFVARPVRFSREHQFFEDGD", "protein stability index": 1.88}, {"variant": "AAPFRFVARPVRFKREHQFFEDGD", "protein stability index": 2.93}, {"variant": "AAPFRFVARPVRFEREHQFFEDGD", "protein stability index": 2.45}, {"variant": "AAPFRFVARPVRFYREHQFFEDGD", "protein stability index": 1.8}, {"variant": "AAPFRFVARPVRFWREHQFFEDGD", "protein stability index": 1.34}, {"variant": "AAPFRFVARPVRFLREHQFFEDGD", "protein stability index": 1.84}, {"variant": "AAPFRFVARPVRFCREHQFFEDGD", "protein stability index": 2.02}, {"variant": "AAPFRFVARPVRFAREHQFFEDGD", "protein stability index": 2.16}, {"variant": "AAPNRFVARPVRFPREHQFFEDGD", "protein stability index": 4.37}, {"variant": "AAPTRFVARPVRFPREHQFFEDGD", "protein stability index": 4.36}, {"variant": "AAPARFVARPVRFPREHQFFEDGD", "protein stability index": 4.66}, {"variant": "AAPGRFVARPVRFPREHQFFEDGD", "protein stability index": 4.57}, {"variant": "AAPPRFVARPVRFPREHQFFEDGD", "protein stability index": 4.84}, {"variant": "AAPHRFVARPVRFPREHQFFEDGD", "protein stability index": 4.58}, {"variant": "AAPYRFVARPVRFPREHQFFEDGD", "protein stability index": 3.68}, {"variant": "AAPQRFVARPVRFPREHQFFEDGD", "protein stability index": 4.68}, {"variant": "AAPFRFVARPVRFPREHQFFRDGD", "protein stability index": 1.92}, {"variant": "AAPFRFVARPVRFPREHQFFHDGD", "protein stability index": 2.5}, {"variant": "AAPFRFVARPVRFPREHQFFPDGD", "protein stability index": 2.45}, {"variant": "AAPFRFVARPVRFPREHQFFIDGD", "protein stability index": 1.97}, {"variant": "AAPFRFVARPVRFPREHQFFADGD", "protein stability index": 1.96}, {"variant": "AAPFRFVARPVRFPREHQFFFDGD", "protein stability index": 1.65}, {"variant": "AAPFRFVARPVRFPREHQFFVDGD", "protein stability index": 2.07}, {"variant": "AAPFRFVARPVRFPREHQFFEDGP", "protein stability index": 2.1}, {"variant": "AAPFRFVARPVRFPREHQFFEDGI", "protein stability index": 1.53}, {"variant": "AAPFRFVARPVRFPREHQFFEDGV", "protein stability index": 2.73}, {"variant": "AAPFRFVARPVRFPREHQFFEDGC", "protein stability index": 2.29}, {"variant": "AAPFRFVARPVRFPREHQFFEDGF", "protein stability index": 1.83}, {"variant": "AAPFRFVARPVRFPREHQFFEDGN", "protein stability index": 2.88}, {"variant": "AAPFRFVARPVRFPREHQFFEDGG", "protein stability index": 2.08}, {"variant": "AAPFRFVARPVRFPREHQFFEDGS", "protein stability index": 2.01}, {"variant": "AAPFRFVARPVRFPREHQFFEDGE", "protein stability index": 3.01}, {"variant": "AAPFRFVARPVRFPREAQFFEDGD", "protein stability index": 2.66}, {"variant": "AAPFRFVARPVRFPREKQFFEDGD", "protein stability index": 2.2}, {"variant": "AAPFRFVARPVRFPREMQFFEDGD", "protein stability index": 2.37}, {"variant": "AAPFRFVARPVRFPREPQFFEDGD", "protein stability index": 1.92}, {"variant": "AAPFRFVARPVRFPREVQFFEDGD", "protein stability index": 1.94}, {"variant": "AAPFRFVARPVRFPRESQFFEDGD", "protein stability index": 2.2}, {"variant": "AAPFRFVARPVRFPRERQFFEDGD", "protein stability index": 2.29}, {"variant": "AAPFRFVARPVRFPREIQFFEDGD", "protein stability index": 2.59}, {"variant": "AAPFRFVARPVRFPREWQFFEDGD", "protein stability index": 1.72}, {"variant": "AAPFRFVARPVRFPREHRFFEDGD", "protein stability index": 2.27}, {"variant": "AAPFRFVARPVRFPREHNFFEDGD", "protein stability index": 2.33}, {"variant": "AAPFRFVARPVRFPREHVFFEDGD", "protein stability index": 1.9}, {"variant": "AAPFRFVARPVRFPREHMFFEDGD", "protein stability index": 2.86}, {"variant": "AAPFRFVARPVRFPREHCFFEDGD", "protein stability index": 1.64}, {"variant": "AAPFRFVARPVRFPREHPFFEDGD", "protein stability index": 2.05}, {"variant": "AAPFRFVARPCRFPREHQFFEDGD", "protein stability index": 2.02}, {"variant": "AAPFRFVARPMRFPREHQFFEDGD", "protein stability index": 2.06}, {"variant": "AAPFRFVARPKRFPREHQFFEDGD", "protein stability index": 1.75}, {"variant": "AAPFRFVARPYRFPREHQFFEDGD", "protein stability index": 1.74}]}]}
